Measured values as given in publication PMC4755285 (Journal of biomolecular screening, 2015).
Like-named read-outs stand apart in the source and are kept apart here. Ends that are not written are not given here.

Assays:
Test in all cases: fluorescence polarisation
[1] = target: FITC labeled HCN4 peptide (C-terminal 11 amino acids of HCN4)
[2] = target: FITC labeled HCN1 peptide (C-terminal 11 amino acids of HCN1)
[3] = target: FITC labeled HCN2 peptide (C-terminal 11 amino acids of HCN2)
[4] = target: FITC labeled HCN3 peptide (C-terminal 11 amino acids of HCN3)
[5] = target: TRIP8b(241-602)
[6] = target: TRIP8b(241-602); remark: listed apart in the source
[7] = target: TRIP8b(241-602); remark: listed apart in the source
[8] = target: TRIP8b(241-602); remark: listed apart in the source
[9] = target: T1, His tagged full length TRIP8b (1b-2) isoform
T1 chain: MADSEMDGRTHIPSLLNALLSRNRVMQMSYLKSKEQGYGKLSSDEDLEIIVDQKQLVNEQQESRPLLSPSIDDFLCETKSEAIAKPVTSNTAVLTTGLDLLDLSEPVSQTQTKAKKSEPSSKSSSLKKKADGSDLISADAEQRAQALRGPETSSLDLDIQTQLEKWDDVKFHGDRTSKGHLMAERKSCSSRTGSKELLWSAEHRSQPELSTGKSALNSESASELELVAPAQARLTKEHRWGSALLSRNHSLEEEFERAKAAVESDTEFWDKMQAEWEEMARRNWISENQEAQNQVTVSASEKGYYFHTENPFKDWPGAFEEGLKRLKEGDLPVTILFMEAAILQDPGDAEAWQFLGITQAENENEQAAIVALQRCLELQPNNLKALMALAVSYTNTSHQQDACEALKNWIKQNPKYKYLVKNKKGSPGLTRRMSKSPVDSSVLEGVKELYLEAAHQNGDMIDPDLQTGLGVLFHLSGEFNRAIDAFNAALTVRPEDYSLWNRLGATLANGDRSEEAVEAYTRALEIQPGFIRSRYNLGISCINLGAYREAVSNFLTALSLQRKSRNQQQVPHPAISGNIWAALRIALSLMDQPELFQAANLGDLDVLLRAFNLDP

TRIP8b(241-602) (domain or fragment) showed a Kd [1] of 810 nM, a Kd [2] of 1230 nM and a fluorescence polarisation without competitor (mP) [2] of 224 mP. The Kd [3] was 910 nM and the Kd [4] was 10200 nM.

DAEKPRFASNL [unlabeled HCN1 peptide] gave an IC50 [5] of 700 nM, an IC50 [6] of 890 nM and an IC50 [7] of 1600 nM. For the same molecule, the IC50 [8] was 1770 nM.

Work on DAEKPRFASNL (also: FITC label, position not given here) [FITC labeled HCN1 peptide (C-terminal 11 amino acids of HCN1)] yielded a Kd [5] of 800 nM and a Kd [9] of 1030 ± 20 nM.

DSARSRLSSNL [unlabeled HCN2 peptide] was tested, and the IC50 [5] was 760 nM.

EPVRSKLPSNL [unlabeled HCN4 peptide] showed an IC50 [5] of 1930 nM.
